Reference: US20170081401A1 (CLOSED JOINT STOCK COMPANY BIOCAD, published 2017)

Tests used:
human IL-17A [1] = target: T1, human IL-17A (human, UniProt Q16552 20-155, limits assumed); experiment: BLI (OctetRed 96), BCD085 on AR2G sensors, human IL-17A as analyte, row 'Concentration (nm)' 34,3; 1:1 model; R^2 0,937248
T1 construct: also called human recombinant IL-17
Procedure: (§1) The affinity of BCD085 binding with human, monkey and rat IL-17A was analyzed on OctetRed 96 (ForteBio). BCD085 was non-specifically immobilized on the surface of amine reactive second-generation sensors (AR2G) according to the standard protocol described in the manufacturer's manual. The test was conducted at a temperature of 30° C. and using PBS with 0.1% Tween-20 and 0.1% BSA as a working buffer.
(§2) Binding curves (after subtracting a reference signal) were analyzed using Octet Data Analysis software (Version 7.0) in accordance with the standard procedure and using 1:1 interaction model.

human IL-17A [2] = target: T1, human IL-17A; experiment: BLI, OctetRed 96, BCD085 immobilized on AR2G sensors; human against monkey IL-17A
Procedure: as §1, §2

[3] = target: T2, monkey IL-17A (Macaca mulatta) (Macaca mulatta, UniProt F6T3G5 24-155); experiment: BLI (OctetRed 96), BCD085 on AR2G sensors, monkey IL-17A as analyte, row 'Concentration (nm)' 68,7; 1:1 model; R^2 0,956946
Procedure: as §1, §2

[4] = target: T2, monkey IL-17A (Macaca mulatta); experiment: BLI (OctetRed 96), BCD085 on AR2G sensors, monkey IL-17A as analyte, row 'Concentration (nm)' 34,4; 1:1 model; R^2 0,964905
Procedure: as §1, §2

human IL-17A [5] = target: T1, human IL-17A; experiment: cell-based or functional assay
[6] = target: T2, monkey IL-17A (Macaca mulatta); experiment: BLI (OctetRed 96), BCD085 on AR2G sensors, monkey IL-17A as analyte, row 'Concentration (nm)' 17,2; 1:1 model; R^2 0,983707
Procedure: as §1, §2

rat IL-17A = target: T3, rat IL-17A (rat, UniProt Q61453 18-150, limits assumed); experiment: BLI, OctetRed 96, BCD085 immobilized on AR2G sensors, IL-17A as analyte
T3 sequence (looked up): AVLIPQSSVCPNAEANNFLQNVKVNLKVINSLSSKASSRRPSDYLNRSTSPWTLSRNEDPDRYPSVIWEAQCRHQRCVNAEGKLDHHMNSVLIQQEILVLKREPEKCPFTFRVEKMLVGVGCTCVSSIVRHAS
Procedure: as §1, §2

human IL-17A [7] = target: T1, human IL-17A; experiment: BLI (OctetRed 96), BCD085 on AR2G sensors, human IL-17A as analyte, row 'Concentration (nm)' 68,6; 1:1 model; R^2 0,973327
Procedure: as §1, §2

T2 sequence (F6T3G5 entry or part of it): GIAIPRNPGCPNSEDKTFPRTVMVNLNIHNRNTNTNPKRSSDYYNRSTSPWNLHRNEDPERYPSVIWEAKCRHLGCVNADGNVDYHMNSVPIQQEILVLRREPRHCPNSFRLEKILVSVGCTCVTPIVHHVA
T1 sequence (Q16552 20-155 limits assumed): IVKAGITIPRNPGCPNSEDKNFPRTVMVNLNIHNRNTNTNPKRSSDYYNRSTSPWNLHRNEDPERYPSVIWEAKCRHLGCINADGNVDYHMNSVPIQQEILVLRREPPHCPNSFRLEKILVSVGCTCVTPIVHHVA

B1: BCD085 monoclonal anti-IL-17A antibody (antibody, V domains shown)
VH: QVQLVQSGGGLVQPGGSLRLSCAADGFTFSNYAMSWVRQAPGKGLEWVSRIEGGIGSSTYAVDSVKDRFTISRDDAKNTLYLQMSSLKTEDTAVYYCAVNYYGMYYWGQGTLVTVSS
VL: QSVLTQPPSVSVAPGKTVTISCTGTSEDVGFGNYVSWYQHLPGTAPKLLIYRVNTRPSGVPDRFSGSQSGNTASLTISGLQAEDEADYYCSSYKAGGTYVFGGGTKLTVLG
notes: Full-length antibody produced in CHO-S cells; also called the candidate; monoclonal anti-IL-17A antibody of the invention
Kd (human IL-17A [1]): < 0.001 nM | fold stronger affinity than to monkey IL-17A (human IL-17A [2]): 1000 fold | Kd [3]: 5.97 nM | Kd [4]: 4.15 nM | IC50, blocking of IL-17-induced IL-6 production by human HT1080 cells (40 ng/ml IL-17 + 20 ng/ml TNF-alpha), IL-6 measured by ELISA (human IL-17A [5]): 0.04 nM | Kd [6]: 2.22 nM | binding result (rat IL-17A): no binding (tested: 126 nM (highest concentration titrated)) | Kd (human IL-17A [7]): < 0.001 nM
